Reference: patent US20160193316A1 (priority 1994, published 2016)
Like-named read-outs stand apart in the source and are kept apart here.

Columns and labels:
[1] = target: HLA-A*0201 (Homo sapiens, UniProt P04439, D140Y/D185E/D98H/E176V/E277Q/G131W/G231S/I119V/I121R/I166T/I218V/L300P/L318F/N151K/N90K/P208A/P217A/Q86G/Q94H/R138H/R169H/T345S); assay: HLA class I peptide binding assay
[2] = target: T1, DRB1*0301 (DR3) (Homo sapiens, UniProt P01903+P01911, A100K/A102G/A103R/A169T/F55Y/I96L/K41T/L162R/M171V/P40S/Q125H/Q178H/Q39Y/R42S/S66N/T106N/T262R/W38E/Y61H); assay: HLA class II peptide binding assay (pH 4.5); conditions: for DR3 binding information: unit not given; for DR3 binding data: Table XIXb
T1 construct: endogenous in cells; host or cells: MAT

[3] = target: T2, HLA-B*0702 (Homo sapiens, UniProt P01889); assay: HLA class I peptide binding assay; conditions: Malaria B07 super motif peptides; binding value, no unit
T2 construct: endogenous in cells; host or cells: GM3107

[4] = target: T3, DRB1*0101 (DR1) (Homo sapiens, UniProt P01903+P01911, A100R/D57E/F55L/F60I/F76Y/I96L/L162R/M171V/P40L/Q125E/R42F/V115G/Y59C); assay: HLA class II peptide binding assay; conditions: for DR1 binding data: Table XIXb, Malaria Super Motif Peptides With Binding Data
T3 construct: endogenous in cells; host or cells: LG2

[5] = target: T4, DRB1*0401 (DR4w4) (Homo sapiens, UniProt P01903+P01911, A100K/A169T/F76Y/I96L/K127E/L162R/M171V/N62H/P40V/Q125Y/R42H/S133A/S149N/S66Y/V115G/V209L/W38E); assay: HLA class II peptide binding assay; conditions: for DR4w4 binding data: Table XIXb
T4 construct: endogenous in cells; host or cells: Preiss

[6] = target: T5, DRB1*0405 (DR4w15) (Homo sapiens, UniProt P01903+P01911, A100R/A169T/D86S/F76Y/I96L/K127E/L162R/M171V/N62H/P40V/Q125Y/R42H/S133A/S149N/S66Y/V115G/V209L/W38E); assay: HLA class II peptide binding assay; conditions: for DR4w15 binding data: Table XIXb
T5 construct: endogenous in cells; host or cells: KT3

[7] = target: T6, DRB1*0701 (DR7) (Homo sapiens, UniProt P01903+P01911, A100R/A102G/A103Q/D57E/D86V/E43K/F76Y/K127E/L162R/M171V/P40G/Q125H/Q99D/R33Q/R42Y/R54Q/S133A/S66F/T210M/V115G/Y107V/Y59L/Y89S); assay: biochemical; assay type: binding
T6 construct: endogenous in cells; host or cells: Pitout

[8] = target: T7, DRB1*0802 (DR8w2) (Homo sapiens, UniProt P01903+P01911, A100R/A103L/A169T/F76Y/H45Y/I96F/K41T/L162R/M171V/P40S/Q125H/Q178H/Q39Y/Q99D/R218S/R42G/S66Y/V115G/W38E); assay: biochemical; assay type: binding
T7 construct: endogenous in cells; host or cells: OLL

[9] = target: T8, DRB1*0901 (DR9) (Homo sapiens, UniProt P01903+P01911, A100R/A103E/D57H/D86V/F55Y/F60I/F76Y/I96F/K127E/L162R/M171V/P40D/Q125H/Q99R/R33Q/R42F/S133A/S66N/T210M/V115G/W38K/Y107V/Y59G/Y89S); assay: biochemical; assay type: binding
T8 construct: endogenous in cells; host or cells: HID

[10] = target: T9, DRB1*1101 (DR5w11) (Homo sapiens, UniProt P01903+P01911, A100R/A169T/A87E/I96F/K41T/L162R/M171V/P40S/Q125H/Q178H/Q39Y/Q99D/R42S/S66Y/T262R/V115G/W38E); assay: biochemical; assay type: binding
T9 construct: endogenous in cells; host or cells: Sweig

[11] = target: T10, DRB1*1201 (DR5w12) (Homo sapiens, UniProt P01903+P01911, A100R/A169T/D57E/D86V/F55L/H45Y/K41T/L162R/M171V/P40S/Q125H/Q178H/Q39Y/Q99D/R42G/S66L/T262R/V114A/V67L/W38E/Y59H/Y61H/Y89S); assay: HLA class II peptide binding assay; conditions: for DR5w12 binding data: Table XIXb
T10 construct: endogenous in cells; host or cells: Herluf

[12] = target: T11, DRB1*1302 (DR6w19) (Homo sapiens, UniProt P01903+P01911, A100E/A169T/K41T/L162R/M171V/P40S/Q125H/Q178H/Q39Y/Q99D/R42S/S66N/T262R/V115G/W38E/Y61H); assay: HLA class II peptide binding assay; conditions: Table XIXb; DR6w19
T11 construct: endogenous in cells; host or cells: H0301

[13] = target: T12, DRB1*1501 (DR2w2β1) (Homo sapiens, UniProt P01903+P01911); assay: HLA class II peptide binding assay; conditions: Table XIXb; DR2w2β1
T12 construct: expressed in transfected cells; host or cells: L466.1 (fibroblasts)

[14] = target: T13, DRB4*0101 (DRw53) (Homo sapiens, UniProt P01903+P13762, G164S); assay: HLA class II peptide binding assay (pH 5.0); conditions: for DRw53 binding data: Table XIXb
T13 construct: expressed in transfected cells; host or cells: L257.6 (fibroblasts)

[15] = target: T14, DRB5*0101 (DR2w2β2) (Homo sapiens, UniProt P01903+Q30154); assay type: binding
T14 construct: expressed in transfected cells; host or cells: L416.3 (fibroblasts) or GM3107

[16] = target: HLA-A*2402 (Homo sapiens, UniProt P04439, D101N/D140Y/D185E/E176V/E190D/F33S/G103R/G107R/I119L/I121M/I306V/K335N/L105A/L180Q/L300P/N151K/N90K/Q86E/Q94H/R106L/R138H/R89G/T104I/T345S/V100E/W191G/Y123F); assay: HLA class I peptide binding assay
[17] = Malaria A02 motif peptides, Table VIII, unit not given
[18] = DR3a motif peptides, exemplary 15-mer containing the core sequence
[19] = DR3a motif peptides, unit not given, exemplary 15-mer containing the core sequence

T9 sequence (P01903 26-254, other chains not shown): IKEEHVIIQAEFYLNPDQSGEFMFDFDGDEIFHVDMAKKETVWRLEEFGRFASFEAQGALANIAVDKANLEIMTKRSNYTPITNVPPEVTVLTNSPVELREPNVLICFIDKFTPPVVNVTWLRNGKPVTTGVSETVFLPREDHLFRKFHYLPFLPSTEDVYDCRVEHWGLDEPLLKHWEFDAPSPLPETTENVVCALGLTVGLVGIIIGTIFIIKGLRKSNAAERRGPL
T4 sequence (P01903 26-254 partner, other chains not shown): as the sequence (P01903 26-254, other chains not shown) above
T3 sequence (P01903 26-254 partner, other chains not shown): as the sequence (P01903 26-254, other chains not shown) above
T11 sequence (P01903 26-254, other chains not shown): as above

## ALLQVRKHL
[1]; [17]
  A*0201 (binding information): 0.0010
[2]; Malaria DR3b motif peptides
  DR3 binding information: -0.0033

## AMICLIQQLNL
[1]; [17]
  A*0201 (binding information): 0.0006

## DPNRNVDBIA (EQPQGDDNNL)
[3]
  B*0702 (binding information): 0.0002

## FMKAVCVEV
[1]; [17]
  A*0201 (binding information): 0.0290
[4]
  DR1 binding data: 0.0072
[2]
  DR3 binding data: -0.0008
[5]
  DR4w4 binding data: -0.0006
[6]
  DR4w15 binding data: 0.0086
[7]
  DR7 binding data: 0.0019
[8]
  DR8w2 binding data: -0.0003
[9]
  DR9 binding data: 0.0820
[10]
  DR5w11 binding data: -0.0004
[11]
  DR5w12 binding data: 0.0038
[12]
  DR6w19 binding data: 0.0003
[13]
  DR2w2β1 binding data: 0.0003
[14]
  DRw53 binding data: 0.0700
[15]
  DR2w2β2 binding data: 0.0430

## GLIMVLSFL
[1]
  A*0201 (binding information): 0.0630

## GPFMKAVCV
[3]
  B*0702 (binding information): 0.0023

## ILSVSSFLFV
[1]
  A*0201 (binding information): 0.0300

## IPEDSEKEV
[3]
  B*0702 (binding information): 0.0001
[2]; [18]
  DR3 binding information: -0.0130

## KLRICPICHKKL
[1]; [17]
  A*0201 (binding information): 0.0001

## KYLVIVFLI
[16]
  A*201 (binding information): 4.6000
  A*2401 (binding information, Malaria A24 motif peptides): 4.6000

## LAGGLALLA
[1]; [17]
  A*0201 (binding information): 0.0001

## LIFFDLFLV
[1]; [17]
  A*0201 (binding information): 0.0890
[4]
  DR1 binding data: 0.0006
[2]
  DR3 binding data: -0.0008
[5]
  DR4w4 binding data: 0.0130
[6]
  DR4w15 binding data: -0.0009
[7]
  DR7 binding data: 0.0028
[8]
  DR8w2 binding data: 0.0007
[9]
  DR9 binding data: -0.0003
[10]
  DR5w11 binding data: 0.0019
[11]
  DR5w12 binding data: 0.0016
[12]
  DR6w19 binding data: 0.0006
[13]
  DR2w2β1 binding data: 0.0048
[15]
  DR2w2β2 binding data: 0.0019

## LLGGVCLVL
[1]; [17]
  A*0201 (binding information): 0.0038

## LLMDCSGSI
[1]; [17]
  A*0201 (binding information): 0.0460
[4]; [19]
  DR1 binding information: 0.0041
[2]; [18]
  DR3 binding information: 0.0300
[5]; [19]
  DR4w4 binding information: 0.0340
[6]; [19]
  DR4w15 binding information: 0.0028
[7]
  DR7 binding information: 0.0072
[8]
  DR8w2 binding information: 0.0014
[10]
  DR5w11 binding information: -0.0002
[11]; [19]
  DR5w12 binding information: 0.0001
[14]; [19]
  DRw53 binding information: 0.0057
[15]
  DR2w2β2 binding information: 0.0250

## LTMSNVKNV
[1]; [17]
  A*0201 (binding information): 0.0010
[4]
  DR1 binding data: 0.0018
[2]
  DR3 binding data: 0.0058
[5]
  DR4w4 binding data: 0.0023
[6]
  DR4w15 binding data: 0.0074
[7]
  DR7 binding data: 0.0410
[8]
  DR8w2 binding data: 0.0110
[9]
  DR9 binding data: 0.0710
[10]
  DR5w11 binding data: 0.0030
[11]
  DR5w12 binding data: 0.0001
[12]
  DR6w19 binding data: 0.0430
[13]
  DR2w2β1 binding data: 0.0003
[14]
  DRw53 binding data: 0.0024
[15]
  DR2w2β2 binding data: 0.0009

## MPNDPNRNV
[3]
  B*0702 (binding information): 0.0001
[2]; [18]
  DR3 binding information: -0.0033

## PYAQEPAPF
[16]; Table X, Malaria A24 Super Motif Peptides With Binding Information, unit not given
  HLA-A24 binding value: 0.0370

## QLVVILIDGI
[1]; [17]
  A*0201 (binding information): 0.0002

## SVLACLLGNV
[1]; [17]
  A*0201 (binding information): 0.0022

## TPYAGEPAPF
[3]
  B*0702 (binding information): 0.0990

## VIGPFMKAV
[1]; [17]
  A*0201 (binding information): 0.0004
[5]
  DR4w4 binding data: -0.0020
[8]
  DR8w2 binding data: 0.0230
[11]
  DR5w12 binding data: 0.0920

## VLLGGVCLVL
[1]; [17]
  A*0201 (binding information): 0.0290

## VPGAAIPYA
[3]
  B*0702 (binding information): 0.0001

## WVNHAVPLA
[1]; [17]
  A*0201 (binding information): 0.0008
[4]
  DR1 binding data: 0.1900
[2]
  DR3 binding data: 0.4000
[5]
  DR4w4 binding data: 5.0000
[6]
  DR4w15 binding data: 0.0360
[7]
  DR7 binding data: 0.4400
[8]
  DR8w2 binding data: 1.8000
[9]
  DR9 binding data: 4.6000
[10]
  DR5w11 binding data: 0.0079
[11]
  DR5w12 binding data: 0.0240
[12]
  DR6w19 binding data: 0.8900
[13]
  DR2w2β1 binding data: 0.0350
[14]
  DRw53 binding data: 0.0430
[15]
  DR2w2β2 binding data: 0.1600

## YYIPHQSSL
[16]
  A*201 (binding information): 4.3000
  A*2401 (binding information, Malaria A24 motif peptides): 4.3000
